Reference: article PMC5787828, “NAC transcription factor JUNGBRUNNEN1 enhances drought tolerance in tomato”

T1: AtJUB1-GST (Arabidopsis thaliana, UniProt Q9SK55 1-275)
T1 sequence: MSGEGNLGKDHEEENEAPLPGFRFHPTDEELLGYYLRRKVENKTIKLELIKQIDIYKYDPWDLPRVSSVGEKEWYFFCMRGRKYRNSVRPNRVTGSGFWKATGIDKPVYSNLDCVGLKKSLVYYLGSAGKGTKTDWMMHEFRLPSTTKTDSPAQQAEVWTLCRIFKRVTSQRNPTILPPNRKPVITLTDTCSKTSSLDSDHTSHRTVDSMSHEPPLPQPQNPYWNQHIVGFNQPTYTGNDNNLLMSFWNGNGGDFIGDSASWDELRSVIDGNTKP

B1: SlDREB2 promoter probe (dsDNA)
DNA 1: TATATGGCTGTGCTTGATCGAACTTCAAATATGATGTTACCTATGGATTA
DNA 2: TAATCCATAGGTAACATCATATTTGAAGTTCGATCAAGCACAGCCATATA
B2: SlDREB1 promoter probe (dsDNA)
DNA 1: TTATTTAGTCGAGTCGTGGCTGTTGGGATGCCGCGGAATTCAGCACGTG
DNA 2: CACGTGCTGAATTCCGCGGCATCCCAACAGCCACGACTCGACTAAATAA
B3: SlDELLA promoter probe (dsDNA)
DNA 1: ATTTTTCACACTTGACCACCACCACTTTTACTTGCCCTACTAAATCTAAA
DNA 2: TTTAGATTTAGTAGGGCAAGTAAAAGTGGTGGTGGTCAAGTGTGAAAAAT

biological target: T1, AtJUB1-GST; assay: EMSA; abolished by 100x unlabelled competitor; Odyssey Infrared EMSA kit (LI-COR); buffer, salt, pH and temperature not stated; settings: protein: recombinant; tags: GST (pDEST24 fusion); chain copies: 2; label: 5'-DY682; blunt

Binding result, binds:
B1
B2
B3
